Reference: patent US6797811

Assays:
[1] = target: T1, FLAG-tagged 88C receptor (human, UniProt P51681 1-352); assay: cell-based or functional assay
T1 sequence: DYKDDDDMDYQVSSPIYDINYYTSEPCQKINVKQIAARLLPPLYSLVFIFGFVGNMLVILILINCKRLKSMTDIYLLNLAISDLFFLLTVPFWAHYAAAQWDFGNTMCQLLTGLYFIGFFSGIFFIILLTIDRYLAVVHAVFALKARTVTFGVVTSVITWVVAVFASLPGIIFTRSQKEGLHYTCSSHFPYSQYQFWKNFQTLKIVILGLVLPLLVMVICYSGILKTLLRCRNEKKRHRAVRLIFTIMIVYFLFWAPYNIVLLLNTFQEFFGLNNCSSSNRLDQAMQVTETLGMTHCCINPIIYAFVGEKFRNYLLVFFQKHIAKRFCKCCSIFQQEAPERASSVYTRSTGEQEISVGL

[2] = target: T1, FLAG-tagged 88C receptor; assay: equilibrium binding of 125I-MIP-1β to HEK-293 cells expressing FLAG-tagged 88C, Scatchard analysis
From the text: (§1) Another assay for receptor interaction with chemokines was a modification of the binding assay described by Ernst et al. *J. Immunol.* 152:3541–3549 (1994). MIP-1β as labeled using the Bolton and Hunter reagent (di-iodide, NEN, Wilmington, Del.), according to the manufacturer's instructions. Unconjugated iodide was separated from labeled protein by elution using a PD-10 column (Pharmacia) equilibrated with PBS and BSA (1% w/v). The specific activity was typically 2200 Ci/mmole. Equilibrium binding was performed by adding ^125I-labeled ligand with or without a 100-fold excess of unlabeled ligand, to 5×10^5 HEK-293 cells transfected with 88C tagged with the FLAG epitope in polypropylene tubes in a total volume of 300 µl (50 mM HEPES pH 7.4, 1 mM CaCl_2, MgCl_2, 0.5% BSA) and incubating for 90 minutes at 27° C. with shaking at 150 rpm. […] After washing, the filters were removed and bound ligand was quantitated by counting gamma emissions. Ligand binding by competition with unlabeled ligand was determined by incubation of 5×10^5 transfected cells (as above) with 1.5 nM of radiolabeled ligand and the indicated concentrations of unlabeled ligand. The samples were collected, washed and counted as above. The data was analyzed using the curve-fitting program Prism (GraphPad Inc., San Diego, Calif.) and the iterative non-linear regression program, LIGAND (PM220).

[3] = target: T1, FLAG-tagged 88C receptor; assay: competition of unlabelled ligand with 1.5 nM 125I-MIP-1β on HEK-293 cells expressing FLAG-tagged 88C
From the text: as §1

B1: MIP-1β (ligand, UniProt P13236 24-92, looked up)
chain: APMGSDPPTACCFSYTARKLPRNFVVDYYETSSLCSQPAVVFQTKRSKQVCADPSESWVQEYVYDLELN
notes: also called MIP-1beta; radiolabeled MIP-1β
B1 was tested, and the “EC50 of inositol phosphate formation (phospholipase C assay), COS-7 cells co-transfected with Gqi5” value [1] was 6 nM, the Kd [2] was 1.6 nM and the IC50 [3] was 7.4 nM.
